Target: 3′-end processing factors
Test: immunoprecipitation under standard salt conditions

percent of the 3′-end processing factors associated: < 1%
Substance: tRNA endonuclease
